How the values were obtained:
[1] = tested on: DNA (sequence derived from the mouse H19 promoter); experiment: EMSA; format: binding; details: purified recombinant protein, unmethylated or methylated oligos, 300 ng salmon sperm DNA competitor
Description: Expression and purification of recombinant His-ZNF512B protein was done as described ([32]). Briefly, pFastBac1 vectors were transformed into DH10Bac bacteria and viruses were generated according to the Bac-to-Bac™ Baculovirus Expression System Protocol (Invitrogen). Extracts were prepared 3 days after infection by washing the cells twice with ice cold PBS and incubation on ice for 10 min in hypotonic buffer (10 mM HEPES-KOH pH 7.9, 1.5 mM MgCl2, 10 mM KCl). After brief vortexing and centrifugation, the pellet (nuclei) was incubated for 20 min in hypertonic buffer (20 mM HEPES-KOH pH 7.9, 25% glycerol, 420 mM NaCl, 1.5 mM MgCl2, 0.2 mM EDTA). After centrifugation for 10 min at 16 000 × g the supernatant was stored at −20°C or directly used for electrophoretic mobility shift assays (EMSAs). Alternatively, the supernatant was purified by FPLC using the Äkta Start (Cytiva) via a His-Trap column (71502768) by standard procedures outlined in the instructions of the manufacturer.
EMSAs were performed as originally described ([34]) with the exception that 300 ng of salmon sperm DNA per reaction were used as an unspecific competitor. […]

[2] = tested on: 4xUAS-tk-luc reporter in HEK293T cells; experiment: Luciferase reporter assay; format: cell-based; details: GAL fusion, 72 h, three biological replicates
Description: Per well of a 6-well plate, 1.5 × 10^5 HEK293T cells were seeded and transfected on the next day using 1 μg of 4xUAS-tk-luc reporter plasmid, 0.5 μg GAL expression vector and 0.5 μg pCMV-lacZ vector for normalization. Cells were directly lysed in well after 72 h with 200 μl Lysis buffer (25 mM Tris/Cl pH 7.5, 8 mM MgCl2, 1 mM EDTA, 1% Triton™ X-100, 15% glycerin, 1 mM DTT) for 15 min at RT. Supernatants were used to measure luciferase activity by mixing 100 μl 1:1 with 90 mg/L D-Luciferin/0.8 mM ATP and quantifying emitted light after 5 s incubation with an Orion L plate reader (Titertek-Berthold). Values were normalized to β-galactosidase activity by adding 5 μL supernatant to 900 μl LacZ buffer (50 mM Na2HPO4, 10 mM KCl, 0.1 mM MgSO4, pH 7) and 100 μl 4 g/L OPNG/0.1 M KPO4. When a color change of the mixture occurred, absorbance at 420 nm was measured.

B1: His-ZNF512B: purified recombinant His-ZNF512B protein (protein, UniProt Q96KM6 1-892, looked up)
Zinc finger protein 512B: MTDPFCVGGRRLPGSSKSGPGKDGSRKEVRLPMLHDPPKMGMPVVRGGQTVPGQAPLCFDPGSPASDKTEGKKKGRPKAENQALRDIPLSLMNDWKDEFKAHSRVKCPNSGCWLEFPSIYGLKYHYQRCQGGAISDRLAFPCPFCEAAFTSKTQLEKHRIWNHMDRPLPASKPGPISRPVTISRPVGVSKPIGVSKPVTIGKPVGVSKPIGISKPVSVGRPMPVTKAIPVTRPVPVTKPVTVSRPMPVTKAMPVTKPITVTKSVPVTKPVPVTKPITVTKLVTVTKPVPVTKPVTVSRPIVVSKPVTVSRPIAISRHTPPCKMVLLTRSENKAPRATGRNSGKKRAADSLDTCPIPPKQARPENGEYGPSSMGQSSAFQLSADTSSGSLSPGSRPSGGMEALKAAGPASPPEEDPERTKHRRKQKTPKKFTGEQPSISGTFGLKGLVKAEDKARVHRSKKQEGPGPEDARKKVPAAPITVSKEAPAPVAHPAPGGPEEQWQRAIHERGEAVCPTCNVVTRKTLVGLKKHMEVCQKLQDALKCQHCRKQFKSKAGLNYHTMAEHSAKPSDAEASEGGEQEERERLRKVLKQMGRLRCPQEGCGAAFSSLMGYQYHQRRCGKPPCEVDSPSFPCTHCGKTYRSKAGHDYHVRSEHTAPPPEEPTDKSPEAEDPLGVERTPSGRVRRTSAQVAVFHLQEIAEDELARDWTKRRMKDDLVPETARLNYTRPGLPTLNPQLLEAWKNEVKEKGHVNCPNDCCEAIYSSVSGLKAHLASCSKGAHLAGKYRCLLCPKEFSSESGVKYHILKTHAENWFRTSADPPPKHRSQDSLVPKKEKKKNLAGGKKRGRKPKERTPEEPVAKLPPRRDDWPPGCRDKGARGSTGRKVGVSKAPEK
modifications: His tag
notes: purified recombinant His-ZNF512B protein
For B1, the DNA binding [1] was “DNA-binding protein (Figure 2F), independent of DNA methylation status”.

B2: K423A: GAL-ZNF512B with K423A mutation, loss of NuRD binding (protein)
chain: MTDPFCVGGRRLPGSSKSGPGKDGSRKEVRLPMLHDPPKMGMPVVRGGQTVPGQAPLCFDPGSPASDKTEGKKKGRPKAENQALRDIPLSLMNDWKDEFKAHSRVKCPNSGCWLEFPSIYGLKYHYQRCQGGAISDRLAFPCPFCEAAFTSKTQLEKHRIWNHMDRPLPASKPGPISRPVTISRPVGVSKPIGVSKPVTIGKPVGVSKPIGISKPVSVGRPMPVTKAIPVTRPVPVTKPVTVSRPMPVTKAMPVTKPITVTKSVPVTKPVPVTKPITVTKLVTVTKPVPVTKPVTVSRPIVVSKPVTVSRPIAISRHTPPCKMVLLTRSENKAPRATGRNSGKKRAADSLDTCPIPPKQARPENGEYGPSSMGQSSAFQLSADTSSGSLSPGSRPSGGMEALKAAGPASPPEEDPERTKHRRAQKTPKKFTGEQPSISGTFGLKGLVKAEDKARVHRSKKQEGPGPEDARKKVPAAPITVSKEAPAPVAHPAPGGPEEQWQRAIHERGEAVCPTCNVVTRKTLVGLKKHMEVCQKLQDALKCQHCRKQFKSKAGLNYHTMAEHSAKPSDAEASEGGEQEERERLRKVLKQMGRLRCPQEGCGAAFSSLMGYQYHQRRCGKPPCEVDSPSFPCTHCGKTYRSKAGHDYHVRSEHTAPPPEEPTDKSPEAEDPLGVERTPSGRVRRTSAQVAVFHLQEIAEDELARDWTKRRMKDDLVPETARLNYTRPGLPTLNPQLLEAWKNEVKEKGHVNCPNDCCEAIYSSVSGLKAHLASCSKGAHLAGKYRCLLCPKEFSSESGVKYHILKTHAENWFRTSADPPPKHRSQDSLVPKKEKKKNLAGGKKRGRKPKERTPEEPVAKLPPRRDDWPPGCRDKGARGSTGRKVGVSKAPEK
modifications: left off: GFP, end not stated, kept
B2 was tested, and the “repression of luciferase reporter” value [2] was “over 50%”.

From PMC11602157, “ZNF512B binds RBBP4 via a variant NuRD interaction motif and aggregates chromatin in a NuRD complex-independent manner” (Nucleic Acids Research, 2024)
